Source: publication PMC10148881, “Recognition of an Ala-rich C-degron by the E3 ligase Pirh2” (Nature Communications, 2023)

What was measured:
Assay in all cases: ITC; peptides (0.6–1.0 mM) titrated into the cell with 180–220 μM protein at 16 °C; 20 mM Tris-HCl pH 7.5, 150 mM NaCl, 10 μM Zn2+; one-site binding model
Settings in all cases: both partners purified
[1] = molecular target: T1, Pirh2 NTD + RING (residues 1–189) (human, UniProt Q96PM5 1-189)
T1 construct: human Pirh2 (Rchy1), NTD + RING, residues 1–189; source: E. coli BL21 (DE3), purified (Ni-NTA, TEV cleavage, SEC); not shown: 8xHis-SUMO, N-terminal, cleaved
T1 sequence (looked up): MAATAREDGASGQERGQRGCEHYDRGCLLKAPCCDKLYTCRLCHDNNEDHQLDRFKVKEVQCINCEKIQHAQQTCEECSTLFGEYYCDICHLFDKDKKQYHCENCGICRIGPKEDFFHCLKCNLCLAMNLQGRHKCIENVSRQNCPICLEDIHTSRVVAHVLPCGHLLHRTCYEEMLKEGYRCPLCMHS

[2] = molecular target: T2, Pirh2 NTD (residues 1–137) (human, UniProt Q96PM5 1-137)
T2 construct: human Pirh2 (Rchy1), NTD, residues 1–137; also called CHY zinc finger; source: E. coli BL21 (DE3), purified (Ni-NTA, TEV cleavage, SEC); not shown: 8xHis-SUMO, N-terminal, cleaved
T2 sequence (looked up): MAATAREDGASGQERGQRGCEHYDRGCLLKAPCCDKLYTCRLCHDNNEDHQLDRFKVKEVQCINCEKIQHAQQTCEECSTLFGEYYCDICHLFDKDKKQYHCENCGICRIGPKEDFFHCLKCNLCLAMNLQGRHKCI

[3] = molecular target: T3, full-length Pirh2 (residues 1–261) (human, UniProt Q96PM5 1-261)
T3 construct: human Pirh2 (Rchy1, RING finger and CHY zinc finger domain-containing protein 1), residues 1–261; Cloned into pET28-MKH8SUMO; the tag was cut off with TEV protease; also called Rchy1; p53-induced RING-H2 protein; source: E. coli BL21 (DE3), purified (Ni-NTA, TEV cleavage, SEC); not shown: 8xHis-SUMO, N-terminal, cleaved
T3 sequence (looked up): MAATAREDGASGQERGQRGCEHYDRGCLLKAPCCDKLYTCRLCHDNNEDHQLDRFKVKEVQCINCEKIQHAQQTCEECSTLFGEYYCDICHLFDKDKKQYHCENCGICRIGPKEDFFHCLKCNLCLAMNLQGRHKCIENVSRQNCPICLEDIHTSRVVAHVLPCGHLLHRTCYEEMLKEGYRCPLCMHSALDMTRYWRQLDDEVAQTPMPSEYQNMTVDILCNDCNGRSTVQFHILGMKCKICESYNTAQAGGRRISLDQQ

Binder | Kd [1] | Kd [2] | Kd [3]
YKTSAAAAAA (decapeptide with a C-terminal six-Ala degron and a free C-terminus; also called decapeptide containing the Ala6/C-degron; six-Ala peptide; source: synthetic peptide) [Ala6/C-degron peptide (sequence: YKTSAAAAAA)] | 0.5 µM | 5.5 µM | 0.9 µM
YKTSAAAATA [Ala6/C-degron peptide with the threonine mutation of Ala-2] | 15 µM |  | 
